Reference: patent publication US20050260216A1 (published 2005)

How the values were obtained:
[1] = target: human type-2 IL-4 receptor (on A549 cells) (human) (UniProt P24394); experiment: cell-based or functional assay
[2] = target: T1, human type-2 IL-4 receptor (on A549 cells) (human, UniProt P24394 26-825; P78552 22-427); experiment: cell-based or functional assay
T1 sequence (looked up) 1: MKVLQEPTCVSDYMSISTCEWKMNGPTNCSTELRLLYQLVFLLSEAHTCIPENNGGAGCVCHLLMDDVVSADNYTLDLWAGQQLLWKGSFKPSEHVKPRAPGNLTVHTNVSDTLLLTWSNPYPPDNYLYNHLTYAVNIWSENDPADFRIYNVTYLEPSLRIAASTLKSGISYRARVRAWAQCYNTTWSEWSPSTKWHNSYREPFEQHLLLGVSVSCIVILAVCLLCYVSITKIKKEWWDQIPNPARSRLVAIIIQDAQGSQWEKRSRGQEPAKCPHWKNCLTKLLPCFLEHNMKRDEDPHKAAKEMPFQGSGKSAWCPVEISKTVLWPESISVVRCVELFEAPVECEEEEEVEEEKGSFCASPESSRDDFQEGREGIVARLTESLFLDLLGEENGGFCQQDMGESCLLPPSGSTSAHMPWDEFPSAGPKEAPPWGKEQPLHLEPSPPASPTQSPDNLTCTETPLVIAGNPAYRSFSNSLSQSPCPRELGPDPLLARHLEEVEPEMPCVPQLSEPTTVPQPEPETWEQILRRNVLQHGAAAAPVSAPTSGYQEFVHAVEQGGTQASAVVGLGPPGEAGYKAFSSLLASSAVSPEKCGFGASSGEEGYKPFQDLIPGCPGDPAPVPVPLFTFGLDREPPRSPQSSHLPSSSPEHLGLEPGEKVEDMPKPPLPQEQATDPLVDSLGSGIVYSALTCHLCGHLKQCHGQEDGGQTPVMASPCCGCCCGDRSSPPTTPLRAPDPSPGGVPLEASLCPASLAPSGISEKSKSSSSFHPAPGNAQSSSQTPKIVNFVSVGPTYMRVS
T1 sequence (looked up) 2: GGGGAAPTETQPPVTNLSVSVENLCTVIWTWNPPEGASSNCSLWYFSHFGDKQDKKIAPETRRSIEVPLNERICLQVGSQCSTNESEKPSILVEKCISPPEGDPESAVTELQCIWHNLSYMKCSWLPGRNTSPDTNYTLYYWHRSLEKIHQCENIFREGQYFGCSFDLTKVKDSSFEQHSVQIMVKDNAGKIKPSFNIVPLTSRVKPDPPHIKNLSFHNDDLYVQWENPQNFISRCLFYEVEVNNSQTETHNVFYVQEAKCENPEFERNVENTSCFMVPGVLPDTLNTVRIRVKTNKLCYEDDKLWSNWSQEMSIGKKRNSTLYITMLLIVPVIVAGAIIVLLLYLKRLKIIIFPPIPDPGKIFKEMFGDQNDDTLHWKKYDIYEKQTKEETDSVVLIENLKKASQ

**Q.** How did the phosphorylation of STAT6 in A549 cells (Western blot); lowest active concentration tested [1] turn out when “recombinant mouse IL-13 (catalogue number 413-ML-025, R&D Systems) (from UniProt P20109 26-131) (ligand)” was run?
**A.** Its phosphorylation of STAT6 in A549 cells (Western blot); lowest active concentration tested is 10 ng/mL.

B1: chimaeric IL-13 (free cIL-13 generated from GST-cIL-13 by thrombin cleavage) (ligand)
chain: GPVPRSVSLPLTLRELIEELVNITQDQTPLCNGSMVWSVDLAAGGYCAALESLTNISNCNAIEKTQRMLGGLCNRKAPTTVSSLPDTKIEVAQFVKDLLSYTKQLFRHGPF
**Q.** With B1 as the molecule, how does the “bioactivity relative to mIL-13 (STAT6 phosphorylation in A549 cells)” value [2] read?
**A.** Its value is roughly 5 fold less than mIL-13.
